From US6429191B1, “Treatment of hearing impairments” (Genentech, Inc., priority 1996, dated 2002)

B1: TGF-β3: transforming growth factor (protein, UniProt P10600 301-412, looked up)
Transforming growth factor …: ALDTNYCFRNLEENCCVRPLYIDFRQDLGWKWVHEPKGYYANFCSGPCPYLRSADTTHSTVLGLYNTLNPEASASPCCVPQDLEPLTILYYVGRTPKVEQLSNMVVKSCKCS
B2: neurotrophin-4/5 (protein, UniProt P34130 81-210, looked up)
Neurotrophin-4: GVSETAPASRRGELAVCDAVSGWVTDRRTAVDLRGREVEVLGEVPAAGGSPLRQYFFETRCKADNAEEGGPGAGGGGCRGVDRRHWVSECKAKQSYVRALTADAQGRVGWRWIRIDTACVCTLLSRTGRA
modifications: Neurotrophin-4
B3: TGF-β2: transforming growth factor (protein, UniProt P61812 303-414, looked up)
Transforming growth factor …: ALDAAYCFRNVQDNCCLRPLYIDFKRDLGWKWIHEPKGYNANFCAGACPYLWSSDTQHSRVLSLYNTINPEASASPCCVSQDLEPLTILYYIGKTPKIEQLSNMIVKSCKCS
B4: FGF-5: growth factor (R & D Systems) (protein, UniProt P12034 21-268, looked up)
Fibroblast growth factor 5: HGEKRLAPKGQPGPAATDRNPRGSSSRQSSSSAMSSSSASSSPAASLGSQGSGLEQSSFQWSPSGRRTGSLYCRVGIGFHLQIYPDGKVNGSHEANMLSVLEIFAVSQGIVGIRGVFSNKFLAMSKKGKLHASAKFTDDCKFRERFQENSYNTYASAIHRTEKTGREWYVALNKRGKAKRGCSPRVKPQHISTHFLPRFKQSEQPELSFTVTVPEKKKPPSPIKPKIPLSAPRKNTNSVKYRLKFRFG
B5: FGF-7: growth factor (R&D Systems) (protein, UniProt P21781 32-194, looked up)
Fibroblast growth factor 7: CNDMTPEQMATNVNCSSPERHTRSYDYMEGGDIRVRRLFCRTQWYLRIDKRGKVKGTQEMKNNYNIMEIRTVAVGIVAIKGVESEFYLAMNKEGKLYAKKECNEDCNFKELILENHYNTYASAKWTHNGGEMFVALNQKGIPVRGKKTKKEQKTAHFLPMAIT
B6: E92A NT-3: NT-3 with mutation at position E92 to alanine (protein, UniProt P20783 139-257, looked up, variant E92A)
Neurotrophin-3: YAEHKSHRGEYSVCDSESLWVTDKSSAIDIRGHQVTVLGEIKTGNSPVKQYFYETRCKEARPVKNGCRGIDDKHWNSQCKTSQTYVRALTSANNKLVGWRWIRIDTSCVCALSRKIGRT
modifications: Neurotrophin-3
notes: NT-3 with mutation at position E92 to alanine

How the values were obtained:
[1] = system: hair cells in cochlear explants; test: Protective effects in cochlear explant cultures co-treated with ototoxins, hair cell count; type: cell-based, rat; conditions: for protective effects on hair cells against ototoxins: growth factor added together with ototoxin, data not shown
Procedure: (§1) FIGS. 9A and 9B depict quantitation of protective effects of NT-4/5 on SGNs (FIG. 9A) and hair cells (FIG. 9B). […] The same experimental procedures were performed as in FIGS. 6A and 6B. The error bars are SEM and ** indicate that as compared to the cultures containing an ototoxin alone, p<0.001. “Con” indicates control culture.
(§2) The protective effect of neurotrophins against ototoxicity was determined in the organotypic cultures of postnatal cochlear explants described in the Examples above. […] A human recombinant neurotrophin (Genentech, Inc.) or other growth factors, alone or in combination, was added to the culture at the same time the ototoxin was added.
(§3) Two days after treatment with ototoxins or co-treatment with ototoxins and neurotrophins (or other growth factors), the cochlear explant cultures were fixed in 4% paraformaldehyde in 0.1 M phosphate buffer (pH 7.4) for 30 min, washed in PBS, and subjected to double histochemical staining of the cochlear explant cultures. After incubation with the monoclonal antibody N52 against neurofilament protein (200 kd) in 1% Triton X100 containing 3% normal goat serum (“NGS”) for 2 days at 4° C., the explants were incubated with a Texas red-conjugated goat anti-mouse secondary antibody (1:70; Cappel) at room temperature for 40 min. The preparations were then stained with FITC-conjugated phalloidin (0.5 μg/ml; Sigma) for 45 min, washed in PBS and mounted in Fluoromount-G (Southern Biotechnology Associates, Birmingham, Ala.) which contains an anti-fading agent.

[2] = system: spiral ganglion neurons (SGNs); test: Survival of dissociated spiral ganglion neurons in serum-free culture; type: cell-based, rat; conditions: for survival-promoting effect on SGNs: P5 rat SGNs, neurotrophins 0.1-50 ng/ml
Procedure: FIG. 1 is a histogram depicting the effects of NT-4/5 on SGN survival. SGNs were prepared from P5 rats, plated and kept for 2 days in serum-free medium in the absence or presence of NT-4/5 at different concentrations. Viable SGNs were identified by labeling with a neurofilament monoclonal antibody (N52), viewed under a Zeiss Axiophot microscope, and counted using a grid ocular reticule covering an area of […]. For each culture, about 10 randomly selected fields were counted. Data were collected from 3 to 5 cultures and normalized as a percentage of the number of viable neurons in the control cultures in each of the experiments. The error bars represent SEM.
FIG. 2 is a histogram depicting the effects of different neurotrophins on SGN survival. SGNs were prepared from P5 rats and maintained for 2 days in serum-free medium without or with different neurotrophins at different concentrations. Quantitation of viable SGNs was made in the same way as in FIG. 1 and the error bars are SEM. […] Difference between NT-3 and NT-4/5 or BDNF was very significant at all doses (P<0.001). No statistical difference was found between NT-4/5 and BDNF except the dose of 0.1 ng/ml (P<0.01).
Identical results (not shown) were also obtained with a different neuronal marker, a monoclonal antibody 3A10 (Furley et al., 1990). SGNs were dissociated from postnatal day 5 (P5) rat cochleae and plated in defined serum-free medium. […] The enzyme was inactivated with a mixture of 0.005% soybean trypsin inhibitor (Sigma) and 0.005% DNase (Worthington) before trituration with 0.05% DNase in Eagle's Basal Medium (“BME”). The dissociated cells were preplated on a 35 mm untreated tissue culture dish for 25 min to enrich the neuronal population. Under these experimental procedures, about 10% of the cell population were spiral ganglion neurons (“SGNs”) as determined by immunocytochemistry with a monoclonal antibody (N52; Boehringer) against neurofilaments (200 kd; Boehringer). […] Cells were plated at a density of 80,000/well. In control cultures about 75% of SGNs died after 2 days, presumably due to a lack of growth factors.

[3] = system: SGNs in cochlear explants; test: Protective effects in cochlear explant cultures co-treated with ototoxins, SGN peripheral axon count; type: cell-based, rat; conditions: for protective effects on SGNs against ototoxins: growth factor added together with ototoxin, data not shown
Procedure: as §1
FIG. 10 depicts quantitation of neuroprotection of different neurotrophins against sodium salicylate (Sal) and gentamicin (Gent). […] Sodium salicylate (5 mM) or gentamicin (3 mM) was added either alone or in combination with one of the neurotrophins (20 ng/ml) to 2-day cultures and the cultures were kept for 2 more days. The same experimental procedures were performed as in FIGS. 6A and 6B. […] The error bars are SEM and ** indicate that as compared to the cultures containing an ototoxin alone, p<0.001.
as §2, §3

[4] = system: spiral ganglion neurons (SGNs); test: Neurotrophin protection of dissociated SGNs against cisplatin neurotoxicity; type: cell-based, rat; conditions: 10 ng/ml neurotrophin
Description: Quantitation of viable SGNs was done in the same way as in FIG. 1. The error bars stand for SEM. […] While no difference was found between cultures containing NT-4/5 and cultures containing BDNF, the difference between cultures containing NT-3 and cultures containing NT-4/5 or BDNF was statistically very significant (P<0.001).

[5] = target: trkC receptor (Homo sapiens, UniProt Q16288); conditions: compared with NT-3; cited from earlier work
Chain of trkC receptor (Q16288 32-839): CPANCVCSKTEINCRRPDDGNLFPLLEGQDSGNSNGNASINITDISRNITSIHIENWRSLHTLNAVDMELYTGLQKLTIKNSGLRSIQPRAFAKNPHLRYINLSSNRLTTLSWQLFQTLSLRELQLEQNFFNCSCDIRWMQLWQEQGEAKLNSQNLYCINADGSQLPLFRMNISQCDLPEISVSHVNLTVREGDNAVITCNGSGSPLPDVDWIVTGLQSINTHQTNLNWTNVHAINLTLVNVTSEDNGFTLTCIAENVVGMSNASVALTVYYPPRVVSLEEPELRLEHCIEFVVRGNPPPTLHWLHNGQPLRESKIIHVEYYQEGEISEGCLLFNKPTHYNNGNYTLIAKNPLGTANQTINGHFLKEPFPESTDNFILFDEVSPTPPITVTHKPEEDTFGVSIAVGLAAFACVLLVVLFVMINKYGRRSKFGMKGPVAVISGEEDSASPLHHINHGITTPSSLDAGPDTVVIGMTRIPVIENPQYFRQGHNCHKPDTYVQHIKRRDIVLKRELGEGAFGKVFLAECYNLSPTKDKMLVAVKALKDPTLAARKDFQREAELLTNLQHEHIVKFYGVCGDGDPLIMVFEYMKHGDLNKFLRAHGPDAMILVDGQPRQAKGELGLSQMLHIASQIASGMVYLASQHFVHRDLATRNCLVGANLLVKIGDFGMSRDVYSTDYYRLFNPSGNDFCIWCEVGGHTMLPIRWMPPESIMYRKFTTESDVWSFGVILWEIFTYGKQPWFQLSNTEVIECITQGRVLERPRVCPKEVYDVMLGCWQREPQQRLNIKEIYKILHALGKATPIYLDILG

Molecule	protective effects on hair cells against ototoxins [1]	survival-promoting effect on SGNs ([2]; 2 days, serum-free medium)	protective effects on SGNs against ototoxins [3]	other results
B1	did not show detectable protective effects	No survival-promoting effects	did not show detectable protective effects	
B2		greatly enhanced the number of surviving SGNs in a dose-dependent manner		percentage of surviving SGNs compared with control cultures lacking cisplatin ([4]; 1 μg/ml or 2 μg/ml cisplatin, 2 days): higher than that in the control cultures lacking cisplatin; protection of SGNs compared with cultures containing cisplatin alone ([4]; 4 μg/ml cisplatin): significantly protected SGNs from cell death; survival level, % of control cultures in the absence of cisplatin ([4]; 4 μg/ml cisplatin, 2 days): 70%; number of hair cells in control cultures ([1]; 20 ng/ml, no ototoxin): did not enhance; potency on SGN survival compared with other neurotrophins ([2]; 0.1 ng/ml): more potent than BDNF; maximal effect, increase in number of surviving SGNs ([2]; 10 ng/ml, 2 days, serum-free medium, vs control cultures): approximately 3 fold; synergistic/additive effects on SGN survival when added together with BDNF or NT-3 ([2]; saturated concentrations): no additive effects; neuroprotection of SGNs against sodium salicylate and gentamicin ([3]; 20 ng/ml neurotrophin, sodium salicylate 5 mM or gentamicin 3 mM): significant neuroprotection; number of SGNs in control cultures ([3]; 20 ng/ml, no ototoxin): did not enhance; protection of SGNs from the three ototoxins ([3]; 20 ng/ml, sodium salicylate 5 mM, gentamicin 3 mM or cisplatin 4 μg/ml, 2 days co-treatment): significantly protected SGNs from the three ototoxins
B3	did not show detectable protective effects	No survival-promoting effects	did not show detectable protective effects	
B4	did not show detectable protective effects		did not show detectable protective effects	
B5	did not show detectable protective effects		did not show detectable protective effects	
B6				trkC binding of NT-3 mutant [5]: increased trkC binding
